This note sets out measurements from the supplement of paper PMC10567573.

B1: INTS3 (parent)
chain: FSDDEEDLNSKGKKREFRFHPIKE
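Note: lentivirally expressed fusions sorted by FACS into six bins by GFP to DsRed ratio, PSI derived from sequencing read proportions per bin multiplied by bin number.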

In the data set the parent is B1. The data set is described as follows: protein stability index of a GFP-peptide fusion (GPS, HEK-293T) (PSI 1-6); higher = more stable. The settings on record: c terminus: a fixed tail appended.
As for FSDDEEDLNSKGTKREFRFHPIKE, the protein stability index was found to be 3.11.
The same measure for FSDDEEDLNSKGAKREFRFHPIKE: 3.41; for FSDDEEDLNSKGLKREFRFHPIKE: 3.54; for FSDDEEDLNSKGYKREFRFHPIKE: 3.02.
Consider FSDDEEDLNSKGIKREFRFHPIKE, for which the protein stability index worked out at 2.31.
Regarding FSDDEEDLNSKGQKREFRFHPIKE, the protein stability index is 3.29.
The figure for FSDDEEDLNSKGHKREFRFHPIKE is 2.31.
FSDDEEDLNSKGNKREFRFHPIKE: the protein stability index turned out to be 3.2.
The figure for FSDDEEDLNSKGEKREFRFHPIKE is 3.6; for FSDDEEDLNSKGMKREFRFHPIKE it is 3.23.
For the variant FSDDEEDLNSKGGKREFRFHPIKE, the protein stability index is 3.42.
Consider FSDDEEDLNSKGSKREFRFHPIKE, for which the protein stability index amounted to 3.06.
Consider FSDDEEDLNSKGRKREFRFHPIKE, for which the protein stability index was determined as 2.99.
For the variant FSDDEEDLNSKGDKREFRFHPIKE, the protein stability index came out at 3.4.
Regarding FSDDEEDLNSKGVKREFRFHPIKE, the protein stability index is 2.11.
With FSDDEEDLNSKGPKREFRFHPIKE, the protein stability index amounted to 2.85.
On to FSDDEEDLNSKGWKREFRFHPIKE, for which the protein stability index came out at 2.29.
The figure for FSDDEEDLNSKGCKREFRFHPIKE is 2.89; for FSDDEEDLNSKGFKREFRFHPIKE it is 2.44.
The figure for FSDDEEFLNSKGKKREFRFHPIKE is 2.47.
The figure for FSDDEERLNSKGKKREFRFHPIKE is 1.92; for FSDDEEYLNSKGKKREFRFHPIKE it is 2.23; for FSDDEEWLNSKGKKREFRFHPIKE it is 2.23.
Regarding FSDDEEVLNSKGKKREFRFHPIKE, the protein stability index stood at 2.7.
For the variant FSDDEETLNSKGKKREFRFHPIKE, the protein stability index stood at 2.58.
As to FSDDEENLNSKGKKREFRFHPIKE, the protein stability index was 2.29.
As to FSDDEEMLNSKGKKREFRFHPIKE, the protein stability index is 2.59.
With FSDDEEPLNSKGKKREFRFHPIKE, the protein stability index came to 2.18.
Regarding FSDDEEGLNSKGKKREFRFHPIKE, the protein stability index came to 2.13.
For FSDDEECLNSKGKKREFRFHPIKE, the protein stability index worked out at 1.99.
The same measure for FSDDEEILNSKGKKREFRFHPIKE: 2.12; for FSDDEESLNSKGKKREFRFHPIKE: 2.66; for FSDDEEQLNSKGKKREFRFHPIKE: 2.15.
The same measure for FSDDEEKLNSKGKKREFRFHPIKE: 2.04; for FSDDEEHLNSKGKKREFRFHPIKE: 2.52; for FSDDEEALNSKGKKREFRFHPIKE: 2.59.
The figure for FSDDEEELNSKGKKREFRFHPIKE is 3.14.
Take FSDDEELLNSKGKKREFRFHPIKE: the protein stability index stood at 2.56.
Consider FSDDEEDLNSKVKKREFRFHPIKE, for which the protein stability index turned out to be 2.1.
The same measure for FSDDEEDLNSKNKKREFRFHPIKE: 2.83; for FSDDEEDLNSKTKKREFRFHPIKE: 2.44.
The figure for FSDDEEDLNSKYKKREFRFHPIKE is 2.4; for FSDDEEDLNSKSKKREFRFHPIKE it is 2.65.
As to FSDDEEDLNSKFKKREFRFHPIKE, the protein stability index was determined as 1.91.
The figure for FSDDEEDLNSKMKKREFRFHPIKE is 2.58; for FSDDEEDLNSKEKKREFRFHPIKE it is 3.02.
The figure for FSDDEEDLNSKRKKREFRFHPIKE is 2.14; for FSDDEEDLNSKCKKREFRFHPIKE it is 2.13.
On to FSDDEEDLNSKIKKREFRFHPIKE, for which the protein stability index is 2.14.
On to FSDDEEDLNSKKKKREFRFHPIKE, for which the protein stability index came to 1.98.
Consider FSDDEEDLNSKAKKREFRFHPIKE, for which the protein stability index was 2.67.
With FSDDEEDLNSKWKKREFRFHPIKE, the protein stability index was found to be 2.11.
The figure for FSDDEEDLNSKHKKREFRFHPIKE is 2.58.
The same measure for FSDDEEDLNSKLKKREFRFHPIKE: 2.29.
The same measure for FSDDEEDLNSKPKKREFRFHPIKE: 2.98; for FSDDEEDLNSKDKKREFRFHPIKE: 2.92.
As to FSDDEEDLNSKQKKREFRFHPIKE, the protein stability index was found to be 3.2.
Regarding FSDDYEDLNSKGKKREFRFHPIKE, the protein stability index was 2.29.
The same measure for FSDDGEDLNSKGKKREFRFHPIKE: 2.44; for FSDDVEDLNSKGKKREFRFHPIKE: 2.9; for FSDDIEDLNSKGKKREFRFHPIKE: 2.81.
As for FSDDSEDLNSKGKKREFRFHPIKE, the protein stability index is 2.1.
For FSDDHEDLNSKGKKREFRFHPIKE, the protein stability index worked out at 2.18.
The same measure for FSDDNEDLNSKGKKREFRFHPIKE: 2.39; for FSDDPEDLNSKGKKREFRFHPIKE: 2.48.
In the case of FSDDLEDLNSKGKKREFRFHPIKE, the protein stability index turned out to be 2.55.
The figure for FSDDCEDLNSKGKKREFRFHPIKE is 2.49.
As to FSDDKEDLNSKGKKREFRFHPIKE, the protein stability index stood at 2.17.
The figure for FSDDAEDLNSKGKKREFRFHPIKE is 2.81; for FSDDWEDLNSKGKKREFRFHPIKE it is 1.88; for FSDDDEDLNSKGKKREFRFHPIKE it is 2.68.
The same measure for FSDDTEDLNSKGKKREFRFHPIKE: 2.68; for FSDDMEDLNSKGKKREFRFHPIKE: 2.61.
As to FSDDQEDLNSKGKKREFRFHPIKE, the protein stability index came out at 2.3.
The same measure for FSDDFEDLNSKGKKREFRFHPIKE: 2.41; for FSDDREDLNSKGKKREFRFHPIKE: 2.
For the variant FSDDEVDLNSKGKKREFRFHPIKE, the protein stability index was 2.27.
Take FSDDEGDLNSKGKKREFRFHPIKE: the protein stability index was 2.7.
The same measure for FSDDETDLNSKGKKREFRFHPIKE: 3.08.
The figure for FSDDECDLNSKGKKREFRFHPIKE is 2.62; for FSDDENDLNSKGKKREFRFHPIKE it is 2.1.
The figure for FSDDEQDLNSKGKKREFRFHPIKE is 2.29.
Regarding FSDDEDDLNSKGKKREFRFHPIKE, the protein stability index is 2.8.
The figure for FSDDEYDLNSKGKKREFRFHPIKE is 2.24; for FSDDERDLNSKGKKREFRFHPIKE it is 2.07; for FSDDELDLNSKGKKREFRFHPIKE it is 2.69.
Turning to FSDDEIDLNSKGKKREFRFHPIKE, the protein stability index came out at 2.27.
FSDDEADLNSKGKKREFRFHPIKE: the protein stability index was 2.6.
Regarding FSDDESDLNSKGKKREFRFHPIKE, the protein stability index stood at 2.15.
The figure for FSDDEMDLNSKGKKREFRFHPIKE is 2.18; for FSDDEKDLNSKGKKREFRFHPIKE it is 2.61.
The figure for FSDDEPDLNSKGKKREFRFHPIKE is 2.36; for FSDDEWDLNSKGKKREFRFHPIKE it is 2.32.
The same measure for FSDDEHDLNSKGKKREFRFHPIKE: 2.29.
